# Data reported in US10513702B2, “Synthetic hammerhead ribozymes with ligand-responsive tertiary interactions” (The Board of Trustees of the Leland Stanford Junior …, priority 2015, dated 2019).
# Where a chain is given by its changes, count along the chain named.
# B1: L2b8-t47: previously optimized secondary-structure switching theophylline-responsive RNA device, SEQ ID NO: 3 (nucleic acid)
# DNA: AAACAAACAAAGCUGUCACCGGAUGUGCUUUCCGGUCUGAUGAGUCCGUUGAGUAUACCAGCAUCGUCUUGAUGCCCUUGGCAGACUGUAUACGGAGGACGAAACAGCAAAAAGAAAAAUAAAAA
# modifications: listed as RNA, chemistry not fully specified
# B2: L2b8: previously optimized secondary-structure switching theophylline-responsive RNA device, SEQ ID NO: 1 (nucleic acid)
# DNA: B1 DNA with A52U, G53C, U54C, A85G, C86G, U87A, G88C, U89G, A90G, U91G
# modifications: listed as RNA, chemistry not fully specified
# B3: L2b8-a1: previously optimized secondary-structure switching theophylline-responsive RNA device, SEQ ID NO: 2 (nucleic acid)
# chain: AAACAAACAAAGCUGUCACCGGAAUCAAGGUCCGGUCUGAUGAGUCCGUUGUCCAUACCAGCAUCGUCUUGAUGCCCUUGGCAGGGACGGGACGGAGGACGAAACAGCAAAAAGAAAAAUAAAAA
# modifications: listed as RNA, chemistry not fully specified
# How the values were obtained:
# [1] = tested on: GFP reporter transcript (device in 3′ UTR; GFP/mCherry two-color reporter construct); test: Flow cytometry validation of reconstructed switch/ribozyme sequences in two-color reporter plasmid; type: cell-based, budding yeast strain W303a; conditions: for μ (-tgt), median GFP/mCherry ratio (basal level): absence of target ligand, at least 3 independent transformants, ± standard error of the mean
# From the text: The RNA devices were individually synthesized, integrated into the two-color characterization plasmid, and assayed in yeast via flow cytometry. The μ values obtained from flow cytometry analysis of the reconstructed sequences are tightly correlated with those obtained through the FACS-Seq analysis (FIG. 3a; R^2=0.98). We compared the validated activation ratios (μ−target/μ+target) for several of the best performing switches from the tertiary interaction switch libraries with those from previously optimized RNA devices that function through secondary structure rearrangements (FIG. 3b, Table 1).
# Specific switch sequences were synthesized from overlapping oligonucleotides using overlap-extension PCR as described for the device library constructions. These were gap-repair transformed into the yeast two-color screening plasmid along with control plasmids by the lithium acetate/single-stranded carrier DNA/polyethylene glycol method, with each switch sequence verified using Sanger sequencing. At least three individual colonies were picked and inoculated in SC-URA media. Cultures were grown overnight, back-diluted 20:1 to an OD600˜0.07 and then grown 6 hrs in the absence and presence of a ligand target, at the same ligand concentrations as used for the FACS-Seq assays. The cells were then spun down and resuspended in an equal volume of 1×PBS buffer (Life Technologies) with 1% BSA (Fraction V, EMD Millipore) and a DAPI viability dye (Life Technologies). GFP was excited at 488 nm and measured with a bandpass filter of 525/50 nm. mCherry was excited at 561 nm and measured with a bandpass filter of 615/20 nm. DAPI was excited at 405 nm and measured with a bandpass filter of 450/50 nm. Prior to each use, voltages of fluorescence PMT detectors were calibrated with MACSQuant calibration beads to fix GFP and mCherry levels. For each culture, 10 μl of sample was analyzed, which captured 50,000-150,000 events while also providing cell density measurements. The data was analyzed using a custom MATLAB program to gate for mCherry expression above the no-color controls and non-saturating values for GFP and mCherry, and then extract μ, the median GFP/mCherry ratio. Since cultures that contain tetracycline produce non-specific fluorescence in the GFP emission region, the μ values for this condition were corrected by subtracting a fixed offset.
# Note that the NGS data is based on cells sorted through a FACSAria II Cell Sorter. An in-house flow cytometer (Miltenyi Biotec MACSQuant VYB) was used for validation measurements. The GFP and mCherry levels are given in arbitrary fluorescence units that differ between the two instruments, but in all cases are treated as a linear function of the actual protein levels in order to compute μ. […]
# [2] = tested on: GFP reporter transcript (device in 3′ UTR; GFP/mCherry two-color reporter construct); test: Flow cytometry dose-response assays on reconstructed theophylline-responsive RNA devices; type: cell-based, budding yeast strain W303a; conditions: theophylline 0-20 mM; 4-parameter logistic fit, Hill slope 1.0; [80% confidence interval]
# Procedure: Median GFP/mCherry ratios were computed for at least triplicate independent cultures assayed at theophylline concentrations of 0, 0.16, 0.31, 0.62, 1.25, 2.5, 5, 10, and 20 mM. The data were fit to a 4-parameter logistic model with the Hill slope fixed at 1.0; the 80% confidence interval for the EC50 fit is shown. A range of one standard deviation over the replicates is shown for the mean activity levels and activity ratio.
# [3] = tested on: RNA device self-cleavage (ribozyme); test: In vitro SPR-based ribozyme cleavage assay; type: biochemical; conditions: 500 μM MgCl2, 25° C.
# Procedure: Representative FACS-Seq sort identified theophylline-responsive RNA device cleavage kinetics and ligand sensitivity were determined by surface plasmon resonance (SPR), using previously described protocols. Briefly, the RNA device DNA templates were amplified by PCR (PFU Ultrall HS; Agilent) with primers containing overhangs corresponding to the T7 RNAP promoter and cis-blocking sequences that prevent device cleavage during in vitro T7 transcription (Table 2; SPR templates). A second PCR (KAPA HiFi PCR Kit; Kapa Biosystems) with short primers was performed to enrich the product for full-length sequences (Table 2; SPR_fwd_primer, SPR_rev_primer). […]
# SPR-based cleavage assays were performed at various theophylline concentrations to generate dose-response curves. The RNA dissociation rate constant (kd) at each theophylline concentration ([theo]) was fit to the sigmoidal equation kd=kd,min+(kd,max)/(1+[theo]/IC50) using MATLAB, where kd,max and kd,min are the maximum and minimum RNA dissociation rate constants, evaluated in absence of and with the highest theophylline concentration assayed, respectively. […]
Molecule,"μ (-tgt), median GFP/mCherry ratio (basal level) [1]",EC50 [2] [mM],"Activation Ratio ([1]; 5 mM vs 0 mM theophylline, ± SEM)","kd, ribozyme cleavage (dissociation) rate constant ([3]; 1 mM theophylline) [s⁻¹]","kd, ribozyme cleavage (dissociation) rate constant ([3]; absence of ligand (0 mM theophylline)) [s⁻¹]"
"sTRSVctl: inactive control ribozyme with scrambled catalytic core, SEQ ID NO: 8 (DNA GCUGUCACCGGAUGUGCUUUCCGGUACGUGAGGUCCGUGAGGACAGAACAGC; listed as RNA, chemistry not fully specified) [reference compound]",5.8±0.3,,,,
"sTRSV: wild-type tobacco ringspot virus hammerhead ribozyme, SEQ ID NO: 7; loop I TGTGCTT, loop II GTGA (DNA GCUGUCACCGGAUGUGCUUUCCGGUCUGAUGAGUCCGUGAGGACGAAACAGC; listed as RNA, chemistry not fully specified) [reference compound]",0.051±0.003,,,,
B1,,5.7,2.8±0.3,,
B2,,4.9,,,
B3,0.109±0.004,10.4,,0.00283,0.01
